Measurements from US20160377619A1 (MEDICINAL BIOCONVERGENCE RESEARCH CENTER, published 2016).

Key:
[1] = biological target: T1, tryptophanyl-tRNA synthetase (WRS), recombinant (UniProt P23381 1-471, limits assumed); assay: Luminex multiplex bead assay, antigen coupled to beads, anti-HA-biotin and SA-PE detection
T1 sequence (looked up): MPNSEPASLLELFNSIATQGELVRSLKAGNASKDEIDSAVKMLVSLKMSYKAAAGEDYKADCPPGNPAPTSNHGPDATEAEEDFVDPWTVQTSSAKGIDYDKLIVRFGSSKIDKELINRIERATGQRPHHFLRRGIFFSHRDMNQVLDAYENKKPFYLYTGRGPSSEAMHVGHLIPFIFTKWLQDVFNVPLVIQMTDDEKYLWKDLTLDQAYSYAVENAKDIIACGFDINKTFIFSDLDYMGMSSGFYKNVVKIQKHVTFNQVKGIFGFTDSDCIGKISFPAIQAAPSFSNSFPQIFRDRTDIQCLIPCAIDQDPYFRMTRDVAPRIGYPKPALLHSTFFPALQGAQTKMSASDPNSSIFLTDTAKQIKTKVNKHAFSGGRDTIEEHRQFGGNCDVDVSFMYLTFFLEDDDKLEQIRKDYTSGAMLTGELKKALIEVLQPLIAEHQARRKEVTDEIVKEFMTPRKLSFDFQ
Description: (§1) Then, 50 mg/ml S—NHS (N-hydroxysulfosuccinimide) and 50 mg/ml EDAC (1-ethy-3-[3-dimethylaminopropyl]carbodiimide) were added, followed by activation at room temperature for 20 minutes. The activated beads were washed with PBS, and then 10 μg of respective recombinant ARS antigens, that is, WRS, HRS, NRS, KRS, SRS, YRS, GRS, and AIMP1(p43), which were purified at purity of 90% or higher, were added, followed by reaction at room temperature for 2 hours. The beads linked to the respective ARS antigens were washed. two times with PBS, and then a blocking buffer was added to perform a reaction at room temperature for 30 minutes, thereby blocking unbound residues. Then, the resultant beads were washed two times with PBS, and again dispersed in 100 μl of PBS, and kept in tubes in which the light was blocked. The number of beads bound was measured and recorded by hemocytometer.
(§2) The antibody of the present invention extracted from the periplasm was first diluted with a specimen diluent (PBST+2% BSA) to 1:400. Then, the diluted antibody was diluted 2-fold serially with a specimen diluent, and dispensed in 96 well filter plate at 50 μl for each well. Only the specimen diluent was added in the blank well without the antibody. The ARS-bound beads were put in bead mix tubes to 2000 beads per well, respectively, and the specimen diluent was put with a volume such that 50 μl of the specimen diluent could be put per well. The bead mix solution was well mixed and dispensed in each well, followed by reaction in dark room for 1 hour. After the reaction was ended, the resultant solution was washed three times with PBS (200 μl/well) using a vacuum manifold, 50 μl Anti-(HA)-biotin secondary antibody was added, followed by further reaction in dark room for 1 hour. The beads binding to the secondary antibody were washed three times with PBS, and then, for fluorescent labeling, SA-PE (Streptavidin-Phycoerythrin) was added to 2 μg/ml, followed by reaction in dark room for 30 minutes, washing three times with PBS, and again dispersion in 100 μl of PBS. The fluorescent intensity of the fluorescence-labeled beads was measured using Bio-Plex (Luminex) 200 equipment and Bio-Plex manager program, and the measurement values were analyzed to investigate the binding of the antibody to each ARS.

[2] = biological target: seryl-tRNA synthetase (SRS), recombinant (UniProt P49591 1-514, limits assumed); assay: as above
Chain of seryl-tRNA synthetase (SRS), recombinant (P49591 whole entry): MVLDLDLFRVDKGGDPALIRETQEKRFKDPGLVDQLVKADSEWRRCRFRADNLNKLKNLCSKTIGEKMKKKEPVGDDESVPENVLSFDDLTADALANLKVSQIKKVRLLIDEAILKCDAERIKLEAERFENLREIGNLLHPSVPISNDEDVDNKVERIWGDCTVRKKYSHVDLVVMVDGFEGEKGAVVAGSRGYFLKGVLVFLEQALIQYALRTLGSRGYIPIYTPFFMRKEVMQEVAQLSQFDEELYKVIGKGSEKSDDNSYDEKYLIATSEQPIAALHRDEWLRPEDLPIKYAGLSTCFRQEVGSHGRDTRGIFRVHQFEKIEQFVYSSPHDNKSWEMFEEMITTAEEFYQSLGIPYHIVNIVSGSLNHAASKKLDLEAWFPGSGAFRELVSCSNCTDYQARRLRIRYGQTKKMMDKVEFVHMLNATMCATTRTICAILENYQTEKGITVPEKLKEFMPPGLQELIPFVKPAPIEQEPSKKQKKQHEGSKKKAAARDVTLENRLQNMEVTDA
Description: as §1, §2

[3] = biological target: T2, asparaginyl-tRNA synthetase (NRS), recombinant (UniProt O43776 1-548, limits assumed); assay: as above
T2 sequence (looked up): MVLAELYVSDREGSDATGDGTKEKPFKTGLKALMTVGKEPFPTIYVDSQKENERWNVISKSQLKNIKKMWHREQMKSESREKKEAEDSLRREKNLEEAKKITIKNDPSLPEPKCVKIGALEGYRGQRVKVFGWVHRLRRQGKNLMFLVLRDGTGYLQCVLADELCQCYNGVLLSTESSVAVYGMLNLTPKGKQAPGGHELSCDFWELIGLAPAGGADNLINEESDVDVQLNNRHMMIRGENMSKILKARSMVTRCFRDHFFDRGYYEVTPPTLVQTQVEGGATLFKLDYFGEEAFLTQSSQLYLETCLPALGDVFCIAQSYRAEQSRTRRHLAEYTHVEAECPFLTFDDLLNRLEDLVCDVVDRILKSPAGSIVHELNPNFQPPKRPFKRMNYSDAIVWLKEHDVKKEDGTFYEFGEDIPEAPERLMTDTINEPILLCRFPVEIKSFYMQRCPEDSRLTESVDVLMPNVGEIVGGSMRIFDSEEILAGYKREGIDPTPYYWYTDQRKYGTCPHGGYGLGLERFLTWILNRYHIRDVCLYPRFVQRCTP
Description: as §1, §2

[4] = biological target: T3, glycyl-tRNA synthetase (GRS), recombinant (UniProt P41250 55-739, limits assumed); assay: as above
T3 sequence (looked up): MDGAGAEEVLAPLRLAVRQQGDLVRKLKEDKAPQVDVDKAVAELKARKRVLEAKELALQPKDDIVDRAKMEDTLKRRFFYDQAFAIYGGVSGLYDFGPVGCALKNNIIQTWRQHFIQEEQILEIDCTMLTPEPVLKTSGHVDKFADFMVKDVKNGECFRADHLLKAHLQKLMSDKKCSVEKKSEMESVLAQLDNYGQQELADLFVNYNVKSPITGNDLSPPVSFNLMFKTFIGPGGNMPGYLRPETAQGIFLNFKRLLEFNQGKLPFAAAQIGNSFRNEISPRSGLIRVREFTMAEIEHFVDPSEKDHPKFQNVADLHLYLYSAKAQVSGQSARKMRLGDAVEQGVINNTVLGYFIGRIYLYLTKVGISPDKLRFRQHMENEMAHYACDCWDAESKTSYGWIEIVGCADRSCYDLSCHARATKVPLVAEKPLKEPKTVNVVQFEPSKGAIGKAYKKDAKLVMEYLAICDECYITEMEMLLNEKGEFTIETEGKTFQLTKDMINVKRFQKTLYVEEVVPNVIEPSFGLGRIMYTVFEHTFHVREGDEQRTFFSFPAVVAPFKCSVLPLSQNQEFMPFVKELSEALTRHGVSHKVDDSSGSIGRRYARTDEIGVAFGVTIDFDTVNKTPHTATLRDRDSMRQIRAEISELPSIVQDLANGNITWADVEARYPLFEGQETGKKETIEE
Description: as §1, §2

[5] = biological target: T4, histidyl-tRNA synthetase (HRS), recombinant (UniProt P12081 1-509, limits assumed); assay: as above
T4 sequence (looked up): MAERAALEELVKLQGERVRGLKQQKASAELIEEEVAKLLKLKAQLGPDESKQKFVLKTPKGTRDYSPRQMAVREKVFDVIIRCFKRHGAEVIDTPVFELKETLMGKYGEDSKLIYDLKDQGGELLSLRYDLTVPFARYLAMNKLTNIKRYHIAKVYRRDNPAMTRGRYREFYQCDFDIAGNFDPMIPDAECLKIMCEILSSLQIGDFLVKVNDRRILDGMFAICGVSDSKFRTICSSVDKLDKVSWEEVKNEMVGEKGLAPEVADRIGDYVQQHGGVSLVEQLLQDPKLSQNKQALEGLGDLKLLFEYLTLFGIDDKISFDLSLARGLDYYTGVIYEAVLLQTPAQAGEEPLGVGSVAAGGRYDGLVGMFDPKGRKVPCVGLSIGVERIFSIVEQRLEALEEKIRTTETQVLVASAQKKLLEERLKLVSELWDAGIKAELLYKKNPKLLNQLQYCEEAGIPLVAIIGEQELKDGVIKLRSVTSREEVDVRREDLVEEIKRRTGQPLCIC
Description: as §1, §2

[6] = biological target: T5, tyrosyl-tRNA synthetase (YRS), recombinant (UniProt P54577 1-528, limits assumed); assay: as above
T5 sequence (looked up): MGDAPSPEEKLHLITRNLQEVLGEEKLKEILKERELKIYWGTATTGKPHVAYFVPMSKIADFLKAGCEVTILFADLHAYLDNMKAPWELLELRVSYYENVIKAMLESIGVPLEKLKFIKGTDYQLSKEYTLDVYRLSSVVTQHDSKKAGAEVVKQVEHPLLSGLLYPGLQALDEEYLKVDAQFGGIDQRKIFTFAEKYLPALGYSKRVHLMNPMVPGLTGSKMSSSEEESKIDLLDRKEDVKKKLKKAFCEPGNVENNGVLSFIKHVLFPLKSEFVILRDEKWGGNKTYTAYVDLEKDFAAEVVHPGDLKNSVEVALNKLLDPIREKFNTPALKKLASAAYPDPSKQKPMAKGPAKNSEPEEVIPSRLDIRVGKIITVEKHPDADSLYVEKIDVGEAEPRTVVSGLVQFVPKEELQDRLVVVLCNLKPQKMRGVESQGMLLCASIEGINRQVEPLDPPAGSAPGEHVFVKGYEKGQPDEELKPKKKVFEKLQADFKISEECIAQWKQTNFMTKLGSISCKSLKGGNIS
Description: as §1, §2

[7] = biological target: T6, aminoacyl-tRNA-synthetase-interacting multifunctional protein 1 (AIMP1), recombinant (UniProt Q12904 1-312, limits assumed); assay: as above
T6 construct: also called AIMP1(p43); p43
T6 sequence (looked up): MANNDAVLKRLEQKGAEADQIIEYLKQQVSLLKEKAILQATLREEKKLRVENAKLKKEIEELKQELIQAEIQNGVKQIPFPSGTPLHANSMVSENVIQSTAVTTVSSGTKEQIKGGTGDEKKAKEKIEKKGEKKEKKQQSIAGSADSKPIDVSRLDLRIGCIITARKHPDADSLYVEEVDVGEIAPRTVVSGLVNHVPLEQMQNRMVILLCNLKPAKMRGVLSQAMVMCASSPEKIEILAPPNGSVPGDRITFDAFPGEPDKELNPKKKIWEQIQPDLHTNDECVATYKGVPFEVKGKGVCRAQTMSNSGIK
Description: as §1, §2

[8] = biological target: T7, lysyl-tRNA synthetase (KRS), recombinant (human, UniProt Q15046 1-597, limits assumed); assay: SPR (ProteOn XPR36), KRS amine-coupled to GLC chip, purified scFv injected at 500-30 nM, 25 C
T7 construct: the construct is not described; also called KRS antigen; recombinant KRS standard material
T7 sequence (Q15046 whole entry): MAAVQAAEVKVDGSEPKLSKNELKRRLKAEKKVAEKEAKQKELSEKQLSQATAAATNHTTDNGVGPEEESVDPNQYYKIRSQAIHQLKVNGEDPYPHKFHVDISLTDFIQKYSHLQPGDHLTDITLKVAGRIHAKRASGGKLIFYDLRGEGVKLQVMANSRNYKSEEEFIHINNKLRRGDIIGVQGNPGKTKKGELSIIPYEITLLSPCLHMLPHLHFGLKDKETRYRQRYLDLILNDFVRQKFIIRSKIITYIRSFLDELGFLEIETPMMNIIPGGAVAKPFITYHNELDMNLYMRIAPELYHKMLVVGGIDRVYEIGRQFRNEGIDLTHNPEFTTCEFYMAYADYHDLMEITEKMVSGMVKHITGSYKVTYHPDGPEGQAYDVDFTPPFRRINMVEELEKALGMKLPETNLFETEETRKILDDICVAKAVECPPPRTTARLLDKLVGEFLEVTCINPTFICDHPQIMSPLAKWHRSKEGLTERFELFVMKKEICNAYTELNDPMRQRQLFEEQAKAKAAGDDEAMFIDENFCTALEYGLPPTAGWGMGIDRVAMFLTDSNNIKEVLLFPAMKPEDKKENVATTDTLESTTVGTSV
Description: The binding affinity of the antibody of the present invention to KRS antigen was measured using the ProteOnTMXPR36 SPR (surface plasmon resonance) biosensor (Bio-Rad).
Specifically, approximately 10 μg/ml KRS antigen was immobilized at about 2,000-4,000 response units to GLC chip (Bio-Rad 6×6 sensor chip, Compact capacity amine coupling for protein-protein interactions) according to the manufacturer's manual, and then 30 μl of the purified scFv antibody of the present invention, which was diluted with PBS to various concentrations (500-30 nM), was injected to the chip at a rate of 50 μl/min at 25° C. to quantify the interaction with the antigen. The surface of the chip was regenerated with 0.85% phosphoric acid. The association rate and dissociation rate were calculated using the ProteOn Manager software, and the equilibrium dissociation constant (KD) was calculated as a ratio of dissociation rate/association rate.

B1: anti-KRS scFv Biocon-K1 (scFv)
scFv: EVQLLESGGGLVQPGGSLRLSCAASGFTFSNYAMSWVRQAPGKGLEWVSGISPSSGDTYYADSVKGRFTISRDNSKNTLYLQMNSLRAEDTAVYYCAKGVWWYHPLLFDYWGQGTLVTVSSGGGGSGGGGSGGGGSQSVLTQPPSASGTPGQRVTISCSGSSSNIGNNTVSWYQQLPGTAPKLLIYANSKRPSGVPDRFSGSKSGTSASLAISGLRSEDEADYYCGAWDSSLSGYVFGGGTKLTVL
notes: Single clone from a human VH3-23/VL1g phage scFv library, expressed in the E. coli periplasm; Purified scFv was used in SPR and ELISA, periplasmic extract in western blot and Luminex assay; also called antibody of the present invention; anti-KRS scFv antibody; not shown: His and HA tags of the pComb3X vector are implied by Ni-NTA purification and anti-HA detection
- binding result [1]: no binding
- binding result [2]: no binding
- binding result [3]: no binding
- binding result [4]: no binding
- binding result [5]: no binding
- binding result [6]: no binding
- binding result [7]: no binding
- Kd [8]: 100 nM
